These are literature values, as cited in patent US12714740B2, “Compositions comprising a tweak ligand and methods of using same” (Children's Hospital Medical Center, priority 2019, dated 2026).

Broadly, the Kd is a measure of binding affinity in units of concentration.

In the data set the target is T1, Fn14 (Homo sapiens, UniProt Q9NP84).
T1 sequence (Q9NP84 28-129): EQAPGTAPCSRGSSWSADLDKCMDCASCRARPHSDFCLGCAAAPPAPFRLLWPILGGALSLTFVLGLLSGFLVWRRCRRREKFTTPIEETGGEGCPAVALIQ
Conditions: natural ligand binding to Fn14; high affinity; read-out: interaction affinity constant (Kd).

B1: TWEAK: natural ligand for Fn14; 14 kDa protein, TNF superfamily member 12 (protein, UniProt O43508 94-249, looked up)
Tumor necrosis factor ligand …: SAPKGRKTRARRAIAAHYEVHPRPGQDGAQAGVDGTVSGWEEARINSSSPLRYNRQIGEFIVTRAGLYYLYCQVHFDEGKAVYLKLDLLVDGVLALRCLEEFSATAASSLGPQLRLCQVSGLLALRPGSSLRIRTLPWAHLKAAPFLTYFGLFQVH
In the case of B1, the Kd was 0.8 to 2.4 nM.
